Results on 41 sequences are retold here after the nanobody polyreactivity screen of Harvey et al. (2022).

This series can be described thus: yeast display, Sf9 membrane polyspecificity reagent, FACS + sequencing; frameworks hold sequencing errors. The procedure, abridged:
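Genes from sorted yeast were amplified by colony PCR, read by MiSeq 2 × 250 sequencing and filtered on CDR length. These cells carried a synthetic nanobody library in Saccharomyces cerevisiae BJ5465 and were sorted by FACS into low and high (top ~1%) gates on anti-HA and streptavidin fluorescence. Polyreactivity is labelled according to the gate of origin.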
For “QVQLVESGGGLVQAGGSLRLSCAASGFTFRGNAMGWYRQAPGKERELVAAISYIGGTTYYADSVKGRFTISRDNAKNTVYLQMNSLKPEDTAVYYCAADLYRSILKPDYDYWGQGTQVTVSS”, the “polyreactivity (PSR sort gate)” value is on record as “high polyreactivity”. For “QVQLVESGGGLVQAGGSLRLSCAASGFTFRGNAMGWYRQAPGKERELVAAITSSGGRTYYADSVKGRFTISRDNAKNTVYLQMNSLKPVDTAVYYCAARYAYPSRYYYWGQGTQGTVSS” the value was “high polyreactivity”; for “QVQLVESGGGLVQAGGSLRLSCAASGFTFRGYAMGWYRPAPGTERELVAAITKRGGSTYYADSVKGRFTISRDNAKNTVYLQMNSLKPEDTAVYYCAKTRRFGRYNAYWYRTYGYDYWGQGSQVTVSS”, “high polyreactivity”; for “QVQLVESGGGLVQAGGSLRLSCAASGFTFRGYAMGWYRQAPGKERELVAAIRRGVGSTYYADSVKGRFTISRDNAKNTVYLQMTSLKPEDTAVYYCNKDNAVDRLPWFQVTYDYWGQGTQVTVSS”, “low polyreactivity”. “QVQLVESGGGLVQAGGSLRLSCAASGFTFRGYAMGWYRQAPGKERELVAAISGSGGRTHYADSVKGRFTISRDNAKNTVYLQMNSLKPEDTAVYYCNAVPYSRPLGNNYWGQGTQVTVSS”: the “polyreactivity (PSR sort gate)” value is “high polyreactivity”. Regarding “QVQLVESGGGLVQAGGSLRLSCAASGFTFRGYAMGWYRQAPGKERELVAAISRGGNTKYADSVKGRFTISRDNAKNTVYLQMNSLKPEDTAVYYCASYYFSSSHRYGYWGQGTQVTVSS”, the “polyreactivity (PSR sort gate)” value is “high polyreactivity”. On to “QVQLVESGGGLVQAGGSLRLSCAASGFTFRINAMGWYRQAPGKERELVAAITWIGGSTYYADSVKGRFTISRDNAKNTVYLQMNSLKPEDTALYYCAADVYNRWWWRAYDYWGQGTQVTVSS”, for which the “polyreactivity (PSR sort gate)” value is “high polyreactivity”.

“QVQLVESGGGLVQAGGSLRLSCAASGFTFRKYAMGWYRQAPGKERELVAANTSGGGSTYYADSVKGRFTISRDNAKNTVYLQMNSLKPEDTAVYYCAAKRSGGQGQGYGYWGQGTQVTVSS”: the “polyreactivity (PSR sort gate)” value is “high polyreactivity”. With “QVQLVESGGGLVQAGGSLRLSCAASGFTFRKYTMGWYRQAPGKERELVAAITNSGTSTYYADSVKGRFTISRDNAKNTVYLQMNSLKPEDTAVYYCARDNEPDYYSYPYDYWGQGTQVTVSS” the entry was “low polyreactivity”; with “QVQLVESGGGLVQAGGSLRLSCAASGFTFRLNAMGWYRQAPGPERELVAAITRSGGNTYYADSVKGRFTIPRDNAKNTVYLQMNSLKPEDTAVYYCAARYFYWFRPTEYYYWGQGTQLTVSS”, “high polyreactivity”; with “QVQLVESGGGLVQAGGSLRLSCAASGFTFRLYAMGWYRQAPGKERELVAAISWGGGSTYYADSVKGRFTISRDNAKNTLYLQMNSLKPEDTAVYYCAAYKYGYRYYYWGQGTLVTVSS”, “high polyreactivity”.

Take “QVQLVESGGGLVQAGGSLRLSCAASGFTFRLYTMGWYRQAPGKERELVAGISTSGGSTYYADSVKGRFTISRDNAKNTVYLQMNSLKPEDTAVYYCAAQAFTSYDYWGQGTQVTVSS”: the “polyreactivity (PSR sort gate)” value is reported as “high polyreactivity”.

Regarding “QVQLVESGGGLVQAGGSLRLSCAASGFTFRPNAMGWYRPAPAKERELVAAISGSGGSTYYADSVKGRFTISRDNAKNTVYLQMNSLKPEDTAVYYFAADSYYDGDYWGQGTQVTVSS”, the “polyreactivity (PSR sort gate)” value is reported as “low polyreactivity”. For “QVQLVESGGGLVQAGGSLRLSCAASGFTFRQYAMGWYRQAPGKERELVAAISRSGSRTYYADSVKGRFTISRDNAKNTVYLQMNSLKPEDTAVYYCNAVFSTITGEYYWGQGTQVTVSS” the value was “high polyreactivity”; for “QVQLVESGGGLVQAGGSLRLSCAASGFTFRRNAMGWYRQAPGKEMELVASISSRGGITYYADSVKGRFTISRDNAKNTVYLQMNSLNPEDTAVYYCAVRFSRYTSNWRQSYDYWGQGTQVTVSS”, “low polyreactivity”. With “QVQLVESGGGLVQAGGSLRLSCAASGFTFRRNTMGWYRQEPGKERELVAAITQRGGSTYYADSVKGRFTISRDNAKNTVYLQMNSLKPEDTAVYYCAVDRHSYIYKYDYWGQGTQVTVSS” the entry was “high polyreactivity”; with “QVQLVESGGGLVQAGGSLRLSCAASGFTFRRYAMGWYRQAAGKERELVASNSWRGGTTYYADSVKGRFTISRDNAKNTVYLQMNSLKPDDTAVYYCARGAATPPGYYSSGQGTQVTVSS”, “low polyreactivity”.

Regarding “QVQLVESGGGLVQAGGSLRLSCAASGFTFRRYAMGWYRQAPGKERELVAAISIRGGRTYYADSVKGRFTISRDNAKNTVYLQMNSLKPEVTAVYYCAAAPVGYGKRFYYWGQGTQVTVSS”, the “polyreactivity (PSR sort gate)” value is “high polyreactivity”.

Take “QVQLVESGGGLVQAGGSLRLSCAASGFTFRRYAMGWYRQAPGKERELVAAITRNGGSTYYADSVKGRFTISRDNAKNTVYLQMNRLKPEDTAVYYCNAVLYTPVYDGFDSWGQGTQVTVSS”: the “polyreactivity (PSR sort gate)” value was “high polyreactivity”. With “QVQLVESGGGLVQAGGSLRLSCAASGFTFRRYTMGWYRQARGKERELVAGITTSGGTYYADSVKGRFTISRDNAKNTVYLQMNSLKPEDTAVYYCAARIYYLYGMDYWGQGTQVTVSS” the entry was “low polyreactivity”; with “QVQLVESGGGLVQAGGSLRLSCAASGFTFRRYVMGWYRQAPGKERELVAAISQRGGSTYYADSVKGRFTISRDNAKNTVYLQMNSLKPEDTAVYYCNIDYAGELDYWGQGTQVTVSS”, “high polyreactivity”; with “QVQLVESGGGLVQAGGSLRLSCAASGFTFRRYVMGWYRQAPGKERELVAAISQSGGSTYYADSVKGRFTISRDNAKNTVYLQMNSLKPEDTAVYYCAAAKVPYGWEQSDYWGQGTQVTVSS”, “high polyreactivity”. With “QVQLVESGGGLVQAGGSLRLSCAASGFTFRRYVMGWYRQAPGKERELVAAISQSGGSTYYADSVKGRFTISRDNAKNTVYLQMYSLKPEDTAVYYCAAVTSRYVLSTFYYWGQGTQVTVSS” the entry was “high polyreactivity”; with “QVQLVESGGGLVQAGGSLRLSCAASGFTFRRYVMGWYRQAPGKERELVAAISQSGGSTYYADSVKGRFTISRDNAMNTVYLQMNSLKPEDTAVYYCAAAKVPYGWAQSDYWGQGTQVTVSS”, “high polyreactivity”; with “QVQLVESGGGLVQAGGSLRLSCAASGFTFRSNAMGWYRQAPGKERELVAAISSNGGRTYYADSVKGRFTISRDNAKNTVYLQMNSLKPEDTAVYYCAARGGYSQKRHDSWGQGTQVTVSS”, “high polyreactivity”. As for “QVQLVESGGGLVQAGGSLRLSCAASGFTFRSNMGWYRQAPGKEREFVAAITKSGGSTYYADSVKGRFTISRDNAKNTVYLQMNSLKPEDTAVYYCAARARYTTGYRIIYDYWGQGSQVTVSS”, the “polyreactivity (PSR sort gate)” value was “high polyreactivity”.

As to “QVQLVESGGGLVQAGGSLRLSCAASGFTFRSYAMGWYRQAPGKERELVAAISSTGRTYYADSVKGRFTISRDNAKNTVYLQMNSLKPEDTAVYYCARNIPVSYYRYGYWGQGTQVTVSS”, the “polyreactivity (PSR sort gate)” value is “high polyreactivity”.

Consider “QVQLVESGGGLVQAGGSLRLSCAASGFTFRSYTMGWYIQAPGKERELVATITWNGGSTYYADSVKGRFTISRDNAKNTVYLQMNSLKPEDTAVYYCAADPPWNFWNYYRMDYWGQGTQVTVSS”, for which the “polyreactivity (PSR sort gate)” value is on record as “low polyreactivity”. For “QVQLVESGGGLVQAGGSLRLSCAASGFTFRVNAMGWYRQAPGKERELVAAISSGGSTNYADSVKGRFTISRDNAKNTVYLQMNSLNPEDNAVYYCAKRFKYIYYWGQGTQVTVSS” the value was “high polyreactivity”. With “QVQLVESGGGLVQAGGSLRLSCAASGFTFRVNAMGWYRQAPGKERELVAVISHSGGSTYYADSVKGRFTISRDNAKNTVYLQMNSLKPEDTAVYYCAKDRVVLYKYYRVDYWGQGTQVTVSS” the entry was “low polyreactivity”; with “QVQLVESGGGLVQAGGSLRLSCAASGFTFRVYAMGWYRQAPGKERELVAAITKRGGSTYYADSVKGRFTISRDNAKNTVYLQMNSLKPEDTAVYYCATENTPHYASHGYWGQGTQVTVSS”, “high polyreactivity”.

In the case of “QVQLVESGGGLVQAGGSLRLSCAASGFTFRWNAMGWYRQAPGKERELVAAITNDDSTYYADSVKGRFTISRDNAKNTVYLQMNSLKPEDTAVYYCNADLTQYDAGFDYWGQGTQVTVSS”, the “polyreactivity (PSR sort gate)” value is listed as “low polyreactivity”. For “QVQLVESGGGLVQAGGSLRLSCAASGFTFRWNGMGSYRQAPGKERELVAAISYDGTGTYYADSVKGRFTISRDNAKNTVYLQMNSLKPEDTAVYYCAKTYRDDTSLSGFDSWGQGTQVTVSS” the value was “high polyreactivity”.

Regarding “QVQLVESGGGLVQAGGSLRLSCAASGFTFRWYAMGWYRQAPGKERELVAAISSGGGSTYYADSVKGRFTISRDNAKITVYLQMNSLKPEDTAVYYCNSRGTRIASGHYYWGQGTQVTVSS”, the “polyreactivity (PSR sort gate)” value is given as “high polyreactivity”.

As to “QVQLVESGGGLVQAGGSLRLSCAASGFTFRWYAMGWYRQAPGKERELVAAITGSGGSTYYADSVKGRFTISRDNAKNTVYLQMNSLKPEDTAVYYCNRYGVRYYRYDYWGQGTQVTVSS”, the “polyreactivity (PSR sort gate)” value was “high polyreactivity”. For “QVQLVESGGGLVQAGGSLRLSCAASGFTFRWYAMGWYRQAPGKERELVASISRRGGSTYYADSVKGRFTISRDNAKNTVYLQMNSLKPEDTAVYYCAADYYDYWGQGTQVTVSS” the value was “high polyreactivity”; for “QVQLVESGGGLVQAGGSLRLSCAASGFTFRWYDMGWYRKAPGKERELVAAIDASDGSTYYADSVKGRFTISRDNAKNTVYLLMNSLKPEDTAVYYCAAEDYQPYFYLYWYDYWGQGTQVTVSS”, “high polyreactivity”; for “QVQLVESGGGLVQAGGSLRLSCAASGFTFRWYTMGWYRQAPGKERELVASINWSTGTPYYADSVKGRFTISRDNAKNTVYLQMNSLNPEDTAVYYCNARFRGRVYDRFGYRGQGTQVTVSS”, “high polyreactivity”. For “QVQLVESGGGLVQAGGSLRLSCAASGFTFRYNAMGWYRQAPGKERELVAAITYRGGSTYYADSVKGRFTISRDNAKNTVYLQMNSLKPEDTAVYYCAAVGDLWGYYWGQGSQVTVSS” the value was “low polyreactivity”; for “QVQLVESGGGLVQAGGSLRLSCAASGFTFRYNDMGWYRQAPGKERELVAVISSDGTTNYADSVKGRFTISRDNAKNTVYLQMNSLKPEDTAVYYCAAWEFRGNAYYVYAFDYWGQGTQVTVSS”, “low polyreactivity”; for “QVQLVESGGGLVQAGGSLRLSCAASGFTFRYYAKGWYRQAPVKERELVARISRGGNTYYADSVKGRLTISRDNAKNTVYLHMNSLKPEDTAVYYCAVDLTRTLSGMDYWGQGTQVTVSS”, “high polyreactivity”.
